Target: T1, biotin-labelled EZH2 protein (UniProt Q15910 1-746, limits assumed, biotin label (EZ-link NHS-PEO4-Biotinylation kit))
T1 construct: Probe in solution (1 ug/ml) on the KDM2B peptide microarray; also called NHS-PEO4-Biotinylation-labelled EZH2 protein; recombinant protein
Assay: KDM2B peptide array probed with biotin-EZH2 1 ug/ml, SA-HRP/ECL;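 note: Background-corrected optical density of each spot on the membrane, given as percent of the brightest spot (100%), color developed for 5 minutes; 100% is the highest background-corrected spot optical density on the membrane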

T1 sequence (Q15910 whole entry): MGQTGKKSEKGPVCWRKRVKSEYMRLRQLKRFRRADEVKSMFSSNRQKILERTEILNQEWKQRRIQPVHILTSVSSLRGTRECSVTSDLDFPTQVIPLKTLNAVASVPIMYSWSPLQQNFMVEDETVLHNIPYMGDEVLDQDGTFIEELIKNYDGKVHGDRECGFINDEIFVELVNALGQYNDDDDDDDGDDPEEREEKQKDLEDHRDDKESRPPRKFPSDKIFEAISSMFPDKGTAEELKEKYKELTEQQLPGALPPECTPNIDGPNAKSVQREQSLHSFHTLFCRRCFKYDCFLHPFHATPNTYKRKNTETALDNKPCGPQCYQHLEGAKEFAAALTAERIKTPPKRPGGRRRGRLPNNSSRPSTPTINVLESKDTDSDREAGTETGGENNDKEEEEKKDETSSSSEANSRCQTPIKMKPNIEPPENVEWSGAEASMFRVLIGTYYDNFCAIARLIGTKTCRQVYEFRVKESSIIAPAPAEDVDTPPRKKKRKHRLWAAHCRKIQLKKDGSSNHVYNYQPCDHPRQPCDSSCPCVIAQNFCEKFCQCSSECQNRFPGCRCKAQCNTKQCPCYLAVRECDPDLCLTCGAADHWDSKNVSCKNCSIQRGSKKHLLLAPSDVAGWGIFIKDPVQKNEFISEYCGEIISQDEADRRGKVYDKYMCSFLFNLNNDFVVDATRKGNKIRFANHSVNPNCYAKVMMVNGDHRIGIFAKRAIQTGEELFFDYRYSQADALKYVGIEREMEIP

Row | Intensity (%) | Binder
1 | 5.43 | SDCNKVTDQCLSFFK [peptide 256]
2 | 2.91 | AEMSVSVQFGQVEEK [peptide 264]
3 | 7.77 | MKYPKVKKYCLMSVK [peptide 45]
4 | 100 | LMSVKGCFTDFHIDF [peptide 47]
5 | 0 | LVGSRRLVDVMDVNT [peptide 27]
6 | 0.85 | KQGYTFFIPSGWIHA [peptide 61]
7 | 2.03 | HLKEKQTEATNAIAE [peptide 42]
8 | 0.64 | MDNRSKLRNIVELRL [peptide 242]
9 | 0.73 | TKLEHLVKRPTVVDL [peptide 37]
10 | 0 | VYCVTQRSHLTQEYQ [peptide 75]
11 | 0 | QTEATNAIAEMKYPK [peptide 43]
12 | 0 | YTKCFEFESATQRPI [peptide 7]
13 | 0.7 | FWLIPPTLHNLALYE [peptide 53]
14 | 11.4 | RVERCQRIELKQGYT [peptide 59]
15 | 1.13 | IDAPRKPSIDGFSSD [peptide 79]
16 | 1.15 | HMPLLSKLHLSYCNH [peptide 248]
17 | 0 | SWLEMEEEACDQQPQ [peptide 82]
18 | 0.31 | AGLDITDASLRLIIR [peptide 245]
19 | 100 | VKKYCLMSVKGCFTD [peptide 46]
20 | 0 | VTDQSINLLTAVGTT [peptide 251]
21 | 0 | FHIDFGGTSVWYHVF [peptide 49]
22 | 1.2 | QKGTEMSMSQFVRYY [peptide 30]
23 | 2.54 | FFIPSGWIHAVYTPV [peptide 62]
24 | 0.03 | DEEGEGRDRAPKPPT [peptide 86]

Row | Intensity (%) | Binder
25 | 19.2 | MSMSQFVRYYETPEA [peptide 31]
26 | 0 | GCFTDFHIDFGGTSV [peptide 48]
27 | 0.04 | YPFYYEMCWYVLERY [peptide 72]
28 | 0.92 | KLRNIVELRLAGLDI [peptide 243]
29 | 0 | RLVDVMDVNTQKGTE [peptide 28]
30 | 0.02 | PDFTVRDVKLLVGSR [peptide 25]
31 | 0 | PKPPTDGSTSPTSTP [peptide 88]
32 | 0 | TQRPIDRQRYDENED [peptide 9]
33 | 5.21 | RYCKQVTKEGCEQFI [peptide 261]
34 | 0 | GRDRAPKPPTDGSTS [peptide 87]
35 | 27.5 | KKTVIYTKCFEFESA [peptide 6]
36 | 7.19 | GFSSDSWLEMEEEAC [peptide 81]
37 | 0 | QRSHLTQEYQRESML [peptide 76]
38 | 0.27 | TVVDLVDWVDNMWPQ [peptide 39]
39 | 0.54 | GGNILHSFNVPMQLR [peptide 66]
40 | 97 | AEKQKKKTVIYTKCF [peptide 5]
41 | 0 | EEEEKDEEGEGRDRA [peptide 85]
42 | 0.55 | RGGKIFWLIPPTLHN [peptide 52]
43 | 2.09 | SVQFGQVEEKLLQKL [peptide 265]
44 | 3.66 | RLIIRHMPLLSKLHL [peptide 247]
45 | 0 | WYHVFRGGKIFWLIP [peptide 51]
46 | 0.3 | QRIELKQGYTFFIPS [peptide 60]
47 | 0 | VDWVDNMWPQHLKEK [peptide 40]
48 | 22.3 | CHIDLRYCKQVTKEG [peptide 260]

Row | Intensity (%) | Binder
49 | 0 | LVKRPTVVDLVDWVD [peptide 38]
50 | 1.74 | RESMLIDAPRKPSID [peptide 78]
51 | 1.74 | GWIHAVYTPVDSLVF [peptide 63]
52 | 1.36 | RCGNICHIDLRYCKQ [peptide 259]
53 | 0 | RKRHAAEKQKKKTVI [peptide 4]
54 | 0 | LALYEEWVLSGKQSD [peptide 55]
55 | 24.6 | EWVLSGKQSDIFLGD [peptide 56]
56 | 5.32 | MDVNTQKGTEMSMSQ [peptide 29]
57 | 15.6 | IFLGDRVERCQRIEL [peptide 58]
58 | 0.9 | VELRLAGLDITDASL [peptide 244]
59 | 0.22 | INLLTAVGTTTRDSL [peptide 252]
60 | 0 | NMWPQHLKEKQTEAT [peptide 41]
61 | 6.33 | PMQLRIYEIEDRTRV [peptide 68]
62 | 0 | SPPTDNRPGQMDNRS [peptide 240]
63 | 5.95 | YNVISLEFSHTKLEH [peptide 35]
64 | 0 | HSFNVPMQLRIYEIE [peptide 67]
65 | 0.89 | LEFSHTKLEHLVKRP [peptide 36]
66 | 0 | QRDKLYNVISLEFSH [peptide 34]
67 | 0 | EDHPPRKRHAAEKQK [peptide 3]
68 | 0.36 | RDVKLLVGSRRLVDV [peptide 26]
69 | 6.61 | KPSIDGFSSDSWLEM [peptide 80]
70 | 0 | SYCNHVTDQSINLLT [peptide 250]
71 | 0 | SKLHLSYCNHVTDQS [peptide 249]
